Test results from paper PMC10783490, “Biochemical and cellular insights into the Baz2B protein, a non-catalytic subunit of the chromatin remodeling complex” (Nucleic Acids Research, 2023).

Assays:
TAM-AT1-AT2 Baz2B [1] = target: T1, TAM-AT1-AT2 Baz2B (Homo sapiens, UniProt Q9UIF8 721-884); test: EMSA; mutant series; EMSA: 20 mM HEPES pH 7.5, 30 mM KCl, 1 mM EDTA, 10 mM (NH4)2SO4, 1 mM DTT, 4 C, 10 nM probe; MST: same plus 0.1 ug/ml BSA, 5 nM probe, 25 C; GST-AT-hook and bromodomain EMSA as in cited refs; conditions: protein: recombinant; tags: His6; blunt
T1 sequence: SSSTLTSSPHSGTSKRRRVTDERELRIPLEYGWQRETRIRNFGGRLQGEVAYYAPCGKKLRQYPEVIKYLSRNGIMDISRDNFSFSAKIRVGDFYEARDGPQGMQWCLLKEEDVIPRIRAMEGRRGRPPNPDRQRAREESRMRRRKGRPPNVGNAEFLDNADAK

TAM-AT1-AT2 Baz2B [2] = target: T1, TAM-AT1-AT2 Baz2B; test: EMSA; EMSA: 20 mM HEPES pH 7.5, 30 mM KCl, 1 mM EDTA, 10 mM (NH4)2SO4, 1 mM DTT, 4 C, 10 nM probe; MST: same plus 0.1 ug/ml BSA, 5 nM probe, 25 C; GST-AT-hook and bromodomain EMSA as in cited refs; conditions: protein: recombinant; tags: His6; blunt
TAM-AT1-AT2 Baz2B Q767A = target: T2, TAM-AT1-AT2 Baz2B Q767A (Homo sapiens, UniProt Q9UIF8 721-884, Q767A); test: as above; conditions: protein: recombinant; tags: His6; blunt
T2 sequence: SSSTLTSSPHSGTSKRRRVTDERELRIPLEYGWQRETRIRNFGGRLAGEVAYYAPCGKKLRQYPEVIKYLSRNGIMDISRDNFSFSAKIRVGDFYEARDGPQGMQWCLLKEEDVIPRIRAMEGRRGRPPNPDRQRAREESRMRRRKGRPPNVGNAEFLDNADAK

TAM Baz2B = target: T3, TAM Baz2B (Homo sapiens, UniProt Q9UIF8 721-843); test: as above; conditions: protein: recombinant; tags: His6; blunt
T3 sequence: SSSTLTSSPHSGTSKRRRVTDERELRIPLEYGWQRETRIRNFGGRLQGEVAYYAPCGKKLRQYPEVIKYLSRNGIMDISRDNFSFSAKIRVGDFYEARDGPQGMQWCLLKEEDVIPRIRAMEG

TAM-AT1-AT2 Baz2B R760E = target: T4, TAM-AT1-AT2 Baz2B R760E (Homo sapiens, UniProt Q9UIF8 721-884, R760E); test: as above; conditions: protein: recombinant; tags: His6; blunt
T4 sequence: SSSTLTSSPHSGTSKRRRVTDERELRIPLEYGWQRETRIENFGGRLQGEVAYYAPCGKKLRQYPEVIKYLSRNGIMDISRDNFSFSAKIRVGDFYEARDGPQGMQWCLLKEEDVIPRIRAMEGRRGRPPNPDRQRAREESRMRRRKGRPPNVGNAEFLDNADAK

TAM-AT1-AT2 Baz2B R837E = target: T5, TAM-AT1-AT2 Baz2B R837E (Homo sapiens, UniProt Q9UIF8 721-884, R837E); test: as above; conditions: protein: recombinant; tags: His6; blunt
T5 sequence: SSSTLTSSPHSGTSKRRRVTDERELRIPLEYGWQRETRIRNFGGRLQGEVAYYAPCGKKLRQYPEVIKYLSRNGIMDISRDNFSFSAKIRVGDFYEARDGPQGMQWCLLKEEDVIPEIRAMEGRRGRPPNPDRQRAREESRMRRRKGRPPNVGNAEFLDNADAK

TAM-AT1-AT2 Baz2B R781E = target: T6, TAM-AT1-AT2 Baz2B R781E (Homo sapiens, UniProt Q9UIF8 721-884, R781E); test: as above; conditions: protein: recombinant; tags: His6; blunt
T6 sequence: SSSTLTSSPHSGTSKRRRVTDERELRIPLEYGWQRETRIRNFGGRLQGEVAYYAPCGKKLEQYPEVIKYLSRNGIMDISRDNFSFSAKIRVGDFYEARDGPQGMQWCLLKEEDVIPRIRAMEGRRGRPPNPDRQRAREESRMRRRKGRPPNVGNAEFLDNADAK

TAM-AT1-AT2 Baz2B L766A = target: T7, TAM-AT1-AT2 Baz2B L766A (Homo sapiens, UniProt Q9UIF8 721-884, L766A); test: as above; conditions: protein: recombinant; tags: His6; blunt
T7 sequence: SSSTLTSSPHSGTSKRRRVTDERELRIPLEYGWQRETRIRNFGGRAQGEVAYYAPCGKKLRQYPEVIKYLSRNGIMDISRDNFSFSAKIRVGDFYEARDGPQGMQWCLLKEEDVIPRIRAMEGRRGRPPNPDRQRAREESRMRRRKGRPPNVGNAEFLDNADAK

TAM-AT1-AT2 Baz2B R765E = target: T8, TAM-AT1-AT2 Baz2B R765E (Homo sapiens, UniProt Q9UIF8 721-884, R765E); test: as above; conditions: protein: recombinant; tags: His6; blunt
T8 sequence: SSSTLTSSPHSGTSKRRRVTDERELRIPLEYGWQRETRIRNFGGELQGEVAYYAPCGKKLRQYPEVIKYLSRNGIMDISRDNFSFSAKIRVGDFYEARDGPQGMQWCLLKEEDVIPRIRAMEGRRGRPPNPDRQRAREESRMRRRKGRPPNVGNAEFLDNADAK

BRD Brg1 [3] = target: T9, BRD Brg1 (UniProt P51532 1453-1564); test: EMSA; one pot with triplex and duplex; EMSA: 20 mM HEPES pH 7.5, 30 mM KCl, 1 mM EDTA, 10 mM (NH4)2SO4, 1 mM DTT, 4 C, 10 nM probe; MST: same plus 0.1 ug/ml BSA, 5 nM probe, 25 C; GST-AT-hook and bromodomain EMSA as in cited refs; conditions: protein: recombinant; tags: His6
BRD Baz2B = target: T10, BRD Baz2B (Homo sapiens, UniProt Q9UIF8 2060-2164); test: EMSA; up to 112 uM, one pot; EMSA: 20 mM HEPES pH 7.5, 30 mM KCl, 1 mM EDTA, 10 mM (NH4)2SO4, 1 mM DTT, 4 C, 10 nM probe; MST: same plus 0.1 ug/ml BSA, 5 nM probe, 25 C; GST-AT-hook and bromodomain EMSA as in cited refs; conditions: protein: recombinant, tags: His6
T10 sequence: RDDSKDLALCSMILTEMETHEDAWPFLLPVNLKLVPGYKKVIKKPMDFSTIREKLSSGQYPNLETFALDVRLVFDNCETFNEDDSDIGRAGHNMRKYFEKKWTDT

GST-AT1-AT2 Baz2A = target: T11, GST-AT1-AT2 Baz2A (UniProt Q91YE5 641-674); test: EMSA; 1.25 uM DNA, 3.6 or 14.4 uM protein; EMSA: 20 mM HEPES pH 7.5, 30 mM KCl, 1 mM EDTA, 10 mM (NH4)2SO4, 1 mM DTT, 4 C, 10 nM probe; MST: same plus 0.1 ug/ml BSA, 5 nM probe, 25 C; GST-AT-hook and bromodomain EMSA as in cited refs; conditions: protein: recombinant; tags: GST; label: none (SybrSafe); blunt
T11 chain: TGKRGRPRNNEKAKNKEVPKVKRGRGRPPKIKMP

BRD Brg1 [4] = target: T9, BRD Brg1; test: EMSA; one pot with duplex and TFO; EMSA: 20 mM HEPES pH 7.5, 30 mM KCl, 1 mM EDTA, 10 mM (NH4)2SO4, 1 mM DTT, 4 C, 10 nM probe; MST: same plus 0.1 ug/ml BSA, 5 nM probe, 25 C; GST-AT-hook and bromodomain EMSA as in cited refs; conditions: protein: recombinant; tags: His6; triplex, third strand TFO
BRD Brg1 [5] = target: T9, BRD Brg1; test: EMSA; one pot with triplex and TFO; EMSA: 20 mM HEPES pH 7.5, 30 mM KCl, 1 mM EDTA, 10 mM (NH4)2SO4, 1 mM DTT, 4 C, 10 nM probe; MST: same plus 0.1 ug/ml BSA, 5 nM probe, 25 C; GST-AT-hook and bromodomain EMSA as in cited refs; conditions: protein: recombinant; tags: His6; blunt

T9 sequence (P51532 1453-1564): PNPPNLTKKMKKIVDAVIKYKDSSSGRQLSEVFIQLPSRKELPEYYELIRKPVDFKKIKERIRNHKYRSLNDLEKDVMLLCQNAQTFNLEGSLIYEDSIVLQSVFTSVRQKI

B1: 45 bp dsDNA FLP015/FLP016 (dsDNA)
DNA 1: ATCAGTTCTCCGGGTTGTCAGGTCGACCAGTTGTTCCTTTGAGGT
DNA 2: ACCTCAAAGGAACAACTGGTCGACCTGACAACCCGGAGAACTGAT
TAM-AT1-AT2 Baz2B [1]
  Kd: 116 ± 50.9 nM
TAM-AT1-AT2 Baz2B [2]
  Kd: 82.2 nM
TAM-AT1-AT2 Baz2B Q767A
  Kd: 440 ± 256 nM
TAM Baz2B
  Kd: 468 nM
TAM-AT1-AT2 Baz2B R760E
  Kd: 93.6 ± 38.2 nM
TAM-AT1-AT2 Baz2B R837E
  Kd: 108 ± 9.3 nM
TAM-AT1-AT2 Baz2B R781E
  Kd: 232 ± 101 nM
TAM-AT1-AT2 Baz2B L766A
  Kd: 98.1 ± 29.5 nM
TAM-AT1-AT2 Baz2B R765E
  Kd: 30.8 ± 6.9 nM

B2: TFO #5 (29 nt ssDNA) (ssDNA)
DNA: GGAGGAAAAAAGAAAAAAAAAAAAAAAGA
BRD Brg1 [3]
  binding result: no binding
BRD Baz2B
  binding result: no binding

B3: rDNA enhancer (En dsDNA) (dsDNA)
DNA 1: TGGATCTTTTTTTTTTTTTTTCTTTTTCCTCCA
DNA 2: TGGAGGAAAAAGAAAAAAAAAAAAAAAGATCCA
GST-AT1-AT2 Baz2A
  binding result: binds

B4: DNA triplex En3_D + TFO #5 (structured_DNA)
DNA 1: TCTTTTTTTTTTTTTTTCTTTTTTCCTCC
DNA 2: GGAGGAAAAAAGAAAAAAAAAAAAAAAGA
DNA 3: GGAGGAAAAAAGAAAAAAAAAAAAAAAGA
BRD Brg1 [4]
  binding result: binds
BRD Baz2B; triplex, third strand TFO
  binding result: no binding

B5: En3_D 29 bp dsDNA (dsDNA)
DNA 1: TCTTTTTTTTTTTTTTTCTTTTTTCCTCC
DNA 2: GGAGGAAAAAAGAAAAAAAAAAAAAAAGA
BRD Brg1 [5]
  binding result: binds
BRD Baz2B; blunt
  binding result: no binding
